# B1: MIA2 (parent)
# chain: SVIEPVQESSFRSRKIAVEDENDL
# Variants of: B1
# Assay: protein stability index of a GFP-peptide fusion (GPS, HEK-293T) (PSI 1-6); higher = more stable
# Settings: c terminus: a fixed tail appended
# 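Note: lentivirally expressed fusions sorted by FACS into six bins by GFP to DsRed ratio, PSI derived from sequencing read proportions per bin multiplied by bin number.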
row,Variant,protein stability index
1,SVIEPVQISSFRSRKIAVEDENDL,4.83
2,SVIEPVQSSSFRSRKIAVEDENDL,4.42
3,SVIEPVQPSSFRSRKIAVEDENDL,5.27
4,SVIEPVQGSSFRSRKIAVEDENDL,5.28
5,SVIEPVQFSSFRSRKIAVEDENDL,4.63
6,SVIEPVQDSSFRSRKIAVEDENDL,4.48
7,SVIEPVQHSSFRSRKIAVEDENDL,5.02
8,SVIEPVQLSSFRSRKIAVEDENDL,5.02
9,SVIEPVQMSSFRSRKIAVEDENDL,4.58
10,SVIEPVQRSSFRSRKIAVEDENDL,4.79
11,SVIEPVQYSSFRSRKIAVEDENDL,4.49
12,SVIEPVQASSFRSRKIAVEDENDL,5.28
13,SVIEPVQNSSFRSRKIAVEDENDL,5.64
14,SVIEPVQVSSFRSRKIAVEDENDL,5.14
15,SVIEPVQQSSFRSRKIAVEDENDL,5.1
16,SVIEPVQKSSFRSRKIAVEDENDL,4.78
17,SVIEPVQWSSFRSRKIAVEDENDL,4.66
18,SVIEPVQCSSFRSRKIAVEDENDL,4.97
19,SVIEPVQESSFRARKIAVEDENDL,5.65
20,SVIEPVQESSFRKRKIAVEDENDL,5.18
21,SVIEPVQESSFRFRKIAVEDENDL,5.03
22,SVIEPVQESSFRLRKIAVEDENDL,5.19
23,SVIEPVQESSFRERKIAVEDENDL,5.3
24,SVIEPVQESSFRHRKIAVEDENDL,5.25

row,Variant,protein stability index
1,SVIEPVQESSFRIRKIAVEDENDL,5.11
2,SVIEPVQESSFRDRKIAVEDENDL,5.05
3,SVIEPVQESSFRCRKIAVEDENDL,5.05
4,SVIEPVQESSFRGRKIAVEDENDL,5.44
5,SVIENVQESSFRSRKIAVEDENDL,5.01
6,SVIEAVQESSFRSRKIAVEDENDL,4.3
7,SVIEYVQESSFRSRKIAVEDENDL,3.78
8,SVIEHVQESSFRSRKIAVEDENDL,4.98
9,SVIETVQESSFRSRKIAVEDENDL,5.3
10,SVIELVQESSFRSRKIAVEDENDL,3.56
11,SVIEEVQESSFRSRKIAVEDENDL,4.79
12,SVIERVQESSFRSRKIAVEDENDL,5.13
13,SVIEMVQESSFRSRKIAVEDENDL,4.14
14,SVIECVQESSFRSRKIAVEDENDL,4.74
15,SVIEWVQESSFRSRKIAVEDENDL,3.49
16,SVIEGVQESSFRSRKIAVEDENDL,4.65
17,SVIEKVQESSFRSRKIAVEDENDL,4.38
18,SVIESVQESSFRSRKIAVEDENDL,5.03
19,SVIEFVQESSFRSRKIAVEDENDL,3.31
20,SVIEIVQESSFRSRKIAVEDENDL,3.56
21,SVIEQVQESSFRSRKIAVEDENDL,5.26
22,SVIEVVQESSFRSRKIAVEDENDL,4.95
23,SVIEDVQESSFRSRKIAVEDENDL,4.88

# From the supplement of paper PMC10567573
